How the values were obtained:
COS-7 cells = assay: HRF's capability of transiting cell membrane (confocal microscopy, Western blotting); type: cell-based; conditions: recombinant rat HRF added to COS-7 cell culture solution
Description: The full-length rat HRF sequence (Chitpatima, et al., 1988) amplified by PCR (polymerase chain reaction) was cloned in pRSET-A vector and then, overexpressed in E. coli. The expressed recombinant protein was purified by His-bound Ni column (Novagen) and then, added to COS-7 cell culture solution. COS-7 cells were immobilized with 3.7% formaldehyde containing Ca^2+ and Mg^2+ for 10 minutes. Then, the cells were stained with anti-His monoclonal antibodies (1:100) containing 0.1% saponin at room temperature for 1 hour. Subsequently, they were incubated with anti-mouse-FITC (1:100) secondary antibodies for 30 minutes. Anti-bleaching agent solution was added thereto and then, observation was made under laser confocal microscope (Leica TCSNT system).
Further, COS-7 cells cultivated in 100 mm culture plate were treated according to the above method. Then, the cells were divided into cytoplasmic fraction and cell membrane fraction. They were loaded onto 10% SDS-PAGE gel and then, Western blotting was carried out using anti-His monoclonal antibodies.
As shown in the figures, HRF was detected within the cells at 1 minute after its addition.

(Na,K)ATPase = assay: Inhibitory activity on (Na,K)ATPase (86Rb+ tracer, K+-uptake); type: cell-based; conditions: 10˜20 μg/ml HRF
Description: RBL-2H3 cells were cultivated and sensitized according to the same procedures as in Example 6 and then, washed three times with Krebs-Ringer buffer (KRP, 140 mM NaCl, 5 mM KCl, 10 mM Na2HPO4, 1 mM MgSO4, 1.4 mM CaCl2, 2.5 mM glucose, pH 7.4). Subsequently, the cells were incubated at 37° C. for 15 minutes and then, thereto was added 0.1% bovine serum albumin (BSA)-containing KRP buffer comprising 1 mM ouabain. ^86Rb^+([…], NEN) was used as a tracer and the cells were cultivated for 5˜10 minutes. 10˜20 µg/ml HRF was added thereto and K^+-uptake was measured for 5, 10 and 15 minutes, respectively.

[1] = tested on: (Na,K)ATPase large cytoplasmic loop; assay: Coimmunoprecipitation in yeast cells; type: binding, rat
Description: In Glucosyl Ura-His-Trp- and galactosyl Ura-His-Trp-media, yeast cells transformed with the constructs prepared in Example 1 were grown, and the cells were harvested by centrifugation at 3,000×g for 5 minutes. The harvested cells were resuspended in yeast lysis buffer (YLB: 50 mM Tris pH 8.0, 5 mM MgCl2, 150 mM NaCl, 50 mM NaF, 2 mM ZnCl2, protease inhibitor cocktail) and subsequently, the suspension was added to glass beads and vortexed. Thereto was added RIPA buffer (10 mM Tris pH 8.0, 100 mM NaCl, 1 mM EDTA, 1% NP4O, 0.5% sodium deoxycholate, 0.1% SDS) and then, the whole mixture was centrifuged at 10,000×g, 4° C. for 30 minutes.
To the cell extracts as prepared above, IgG sorb (The Enzyme Center, Inc.) was added and then, the mixture was incubated at 4° C. for 30 minutes and centrifuged at 10,000×g for 5 minutes. Thereto was added affinity-purified anti-HA 12CA5 monoclonal antibodies and then, the resulting mixture was incubated for 3 hours or overnight at 4° C. 50% protein A agarose solution (Roche, USA) was added to the above immunocomplex and the whole mixture was incubated at 4° C. for 4 hours. After centrifugation for 5 seconds, the obtained pellets were washed with RIPA buffer and washing buffer (1 M NaCl, 10 mM Tris pH 8.0, 0.1% NP4O), respectively. The pellets were resuspended in 2×SDS sample buffer and then, the suspension was loaded onto SDS-PAGE gel. […]

[2] = tested on: (Na,K)ATPase large cytoplasmic loop; assay: Coimmunoprecipitation in COS-7 cells; type: binding; conditions: HA-tagged HRF
Description: Subsequently, to examine such interaction in mammalian cells, COS-7 cells were grown in DMEM^+ culture (Dulbeccos modified Eagles medium containing 10% fetal bovine serum, 100 units/ml penicillin and 100 units/ml streptomycin). The cells were transfected with N-terminal HA-tagged HRF constructs inserted to pCDNAneo vector (Invitrogen). COS-7 cell extracts were immunoprecipitated according to the method of Florkiewicz, et al. (1998). To detect the interactive protein, rabbit polyclonal anti-(Na,K)ATPase antibodies were added thereto.

B1: HRF: recombinant full-length rat HRF overexpressed in E. coli; protein consisting of 172 amino acids (protein)
chain: MIIYRDLISHDELFSDIYKIREIADGLCLEVEGKMVSRTEGAIDDSLIGGNASAEGPEGEGTESTVVTGVDIVMNHHLQETSFTKEAYKKYIKDYMKSLKGKLEEQKPERVKPFMTGAAEQIKHILANFNNYQFFIGENMNPDGMVALLDYREDGVTPFMIFFKDGLEMEKC
modifications: left off: small tags and cut ends
notes: recombinant full-length rat HRF overexpressed in E. coli; protein consisting of 172 amino acids
time after addition at which HRF was detected within the cells (COS-7 cells): 1 min | decrease of (Na,K)ATPase activity ((Na,K)ATPase; K+-uptake measured for 5 minutes): 10.8% | decrease of (Na,K)ATPase activity ((Na,K)ATPase; K+-uptake measured for 10 minutes): 40.4% | decrease of (Na,K)ATPase activity ((Na,K)ATPase; K+-uptake measured for 15 minutes): 50.7% | interaction with (Na,K)ATPase large cytoplasmic loop, coimmunoprecipitation [1]: interaction between HRF and (Na,K)ATPase large cytoplasmic loop could be confirmed | interaction with (Na,K)ATPase large cytoplasmic loop, coimmunoprecipitation [2]: interacted with (Na,K)ATPase large cytoplasmic loop
